Reference: the supplement of paper PMC10567573

B1: COX4I1 (parent)
chain: FDKEWVAKQTKRMLDMKVNPIQGL
B2: ZC3H15 (parent)
chain: RKADFKAGKALVISGREVFEFRPE

Variants of: B1
Assay: protein stability index of a GFP-peptide fusion (GPS, HEK-293T) (PSI 1-6); higher = more stable
Conditions: c terminus: a fixed tail appended
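Also: lentivirally expressed fusions sorted by FACS into six bins by GFP to DsRed ratio, PSI derived from sequencing read proportions per bin multiplied by bin number.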

Q: For FDKEWVAKQKKRMLDMKVNPIQGL [T10K], which protein stability index is on record?
A: 1.78

Q: For FDQEWVAKQTKRMLDMKVNPIQGL [K3Q], which protein stability index is on record?
A: 2.85

Q: With FDKEWVAKQTKRMLDMKVNPIPGL [Q22P] as the variant, how does the protein stability index read?
A: 1.73

Q: Which protein stability index does the source give for FDKEWVAKQTKRMLDMKVNPIWGL [Q22W] here?
A: 1.68

Q: With FDKEWVAKQTKRMLDPKVNPIQGL [M16P] as the variant, how does the protein stability index read?
A: 2.19

Q: Which protein stability index does the source give for FDKEWVAKQTKRMLDTKVNPIQGL [M16T] here?
A: 1.79

Q: For FDKEWVAHQTKRMLDMKVNPIQGL [K8H], which protein stability index is on record?
A: 1.77

Q: For FDKEWVAMQTKRMLDMKVNPIQGL [K8M], which protein stability index is on record?
A: 1.88

Q: For FDKEWVAKQTKRMLDMQVNPIQGL [K17Q], which protein stability index is on record?
A: 1.41

Q: For FDKEWVAKQTKRMLDMKINPIQGL [V18I], which protein stability index is on record?
A: 1.65

Q: With FDKEWVAKQTKRMLDMKGNPIQGL [V18G] as the variant, how does the protein stability index read?
A: 2

Q: With FDKAWVAKQTKRMLDMKVNPIQGL [E4A] as the variant, how does the protein stability index read?
A: 2.41

Q: With NDKEWVAKQTKRMLDMKVNPIQGL [F1N] as the variant, how does the protein stability index read?
A: 3.79

Q: For FDKEWVAKFTKRMLDMKVNPIQGL [Q9F], which protein stability index is on record?
A: 1.54

Q: Which protein stability index does the source give for FDKEWVAKPTKRMLDMKVNPIQGL [Q9P] here?
A: 2

Q: With FDKEWVAKQTKRMLHMKVNPIQGL [D15H] as the variant, how does the protein stability index read?
A: 1.88

Q: With FDKEWVAKQTKRMLIMKVNPIQGL [D15I] as the variant, how does the protein stability index read?
A: 1.76

Q: With FDKEWVAKQTKRMLDMKVNPIQGV [L24V] as the variant, how does the protein stability index read?
A: 1.91

Q: For FDKEWVAKQTKRMLDMKVNPIQGC [L24C], which protein stability index is on record?
A: 2.19

Q: Which protein stability index does the source give for FDKEWVAKQTKRMLDMKVNSIQGL [P20S] here?
A: 1.55

Q: For FDKEWVAKQTKRILDMKVNPIQGL [M13I], which protein stability index is on record?
A: 2.34

Q: With FDKEWVAKQTKRMLDMKVNPTQGL [I21T] as the variant, how does the protein stability index read?
A: 1.83

Variants of: B2
Assay: as above
Conditions: c terminus: a fixed tail appended

Q: With QKADFKAGKALVISGREVFEFRPE [R1Q] as the variant, how does the protein stability index read?
A: 2.99

Q: For CKADFKAGKALVISGREVFEFRPE [R1C], which protein stability index is on record?
A: 1.91

Q: With EKADFKAGKALVISGREVFEFRPE [R1E] as the variant, how does the protein stability index read?
A: 3.5

Q: With MKADFKAGKALVISGREVFEFRPE [R1M] as the variant, how does the protein stability index read?
A: 2.71

Q: With SKADFKAGKALVISGREVFEFRPE [R1S] as the variant, how does the protein stability index read?
A: 2.9

Q: Which protein stability index does the source give for DKADFKAGKALVISGREVFEFRPE [R1D] here?
A: 3.7

Q: Which protein stability index does the source give for AKADFKAGKALVISGREVFEFRPE [R1A] here?
A: 3.21

Q: Which protein stability index does the source give for WKADFKAGKALVISGREVFEFRPE [R1W] here?
A: 2.53

Q: With FKADFKAGKALVISGREVFEFRPE [R1F] as the variant, how does the protein stability index read?
A: 2.01

Q: For KKADFKAGKALVISGREVFEFRPE [R1K], which protein stability index is on record?
A: 3.32

Q: Which protein stability index does the source give for PKADFKAGKALVISGREVFEFRPE [R1P] here?
A: 3.19

Q: With IKADFKAGKALVISGREVFEFRPE [R1I] as the variant, how does the protein stability index read?
A: 1.58

Q: With NKADFKAGKALVISGREVFEFRPE [R1N] as the variant, how does the protein stability index read?
A: 3.23

Q: Which protein stability index does the source give for YKADFKAGKALVISGREVFEFRPE [R1Y] here?
A: 2.81

Q: For VKADFKAGKALVISGREVFEFRPE [R1V], which protein stability index is on record?
A: 2.02

Q: With HKADFKAGKALVISGREVFEFRPE [R1H] as the variant, how does the protein stability index read?
A: 3.44

Q: For LKADFKAGKALVISGREVFEFRPE [R1L], which protein stability index is on record?
A: 2.43

Q: For GKADFKAGKALVISGREVFEFRPE [R1G], which protein stability index is on record?
A: 2.95

Q: With TKADFKAGKALVISGREVFEFRPE [R1T] as the variant, how does the protein stability index read?
A: 3.22

Q: For RKARFKAGKALVISGREVFEFRPE [D4R], which protein stability index is on record?
A: 2.55

Q: Which protein stability index does the source give for RKANFKAGKALVISGREVFEFRPE [D4N] here?
A: 2.03

Q: For RKAEFKAGKALVISGREVFEFRPE [D4E], which protein stability index is on record?
A: 2.64

Q: With RKALFKAGKALVISGREVFEFRPE [D4L] as the variant, how does the protein stability index read?
A: 1.91

Q: For RKAFFKAGKALVISGREVFEFRPE [D4F], which protein stability index is on record?
A: 1.98

Q: For RKAPFKAGKALVISGREVFEFRPE [D4P], which protein stability index is on record?
A: 2.36

Q: With RKAMFKAGKALVISGREVFEFRPE [D4M] as the variant, how does the protein stability index read?
A: 2.54

Q: With RKAQFKAGKALVISGREVFEFRPE [D4Q] as the variant, how does the protein stability index read?
A: 2.73

Q: For RKAIFKAGKALVISGREVFEFRPE [D4I], which protein stability index is on record?
A: 2.27

Q: Which protein stability index does the source give for RKASFKAGKALVISGREVFEFRPE [D4S] here?
A: 2.55

Q: Which protein stability index does the source give for RKAKFKAGKALVISGREVFEFRPE [D4K] here?
A: 2.53

Q: With RKAHFKAGKALVISGREVFEFRPE [D4H] as the variant, how does the protein stability index read?
A: 2.15

Q: Which protein stability index does the source give for RKAAFKAGKALVISGREVFEFRPE [D4A] here?
A: 2.36

Q: With RKAGFKAGKALVISGREVFEFRPE [D4G] as the variant, how does the protein stability index read?
A: 2.42

Q: For RKACFKAGKALVISGREVFEFRPE [D4C], which protein stability index is on record?
A: 1.79

Q: Which protein stability index does the source give for RHADFKAGKALVISGREVFEFRPE [K2H] here?
A: 2.46

Q: With RSADFKAGKALVISGREVFEFRPE [K2S] as the variant, how does the protein stability index read?
A: 3.02

Q: For RCADFKAGKALVISGREVFEFRPE [K2C], which protein stability index is on record?
A: 1.85

Q: With RFADFKAGKALVISGREVFEFRPE [K2F] as the variant, how does the protein stability index read?
A: 2.06

Q: For RRADFKAGKALVISGREVFEFRPE [K2R], which protein stability index is on record?
A: 2.78

Q: With RWADFKAGKALVISGREVFEFRPE [K2W] as the variant, how does the protein stability index read?
A: 1.94

Q: Which protein stability index does the source give for RPADFKAGKALVISGREVFEFRPE [K2P] here?
A: 2.75

Q: With RVADFKAGKALVISGREVFEFRPE [K2V] as the variant, how does the protein stability index read?
A: 2.49

Q: With RYADFKAGKALVISGREVFEFRPE [K2Y] as the variant, how does the protein stability index read?
A: 2

Q: For RMADFKAGKALVISGREVFEFRPE [K2M], which protein stability index is on record?
A: 2.33

Q: With RQADFKAGKALVISGREVFEFRPE [K2Q] as the variant, how does the protein stability index read?
A: 3.23

Q: For RTADFKAGKALVISGREVFEFRPE [K2T], which protein stability index is on record?
A: 3.06

Q: With RNADFKAGKALVISGREVFEFRPE [K2N] as the variant, how does the protein stability index read?
A: 3.24

Q: With RGADFKAGKALVISGREVFEFRPE [K2G] as the variant, how does the protein stability index read?
A: 3.3

Q: For READFKAGKALVISGREVFEFRPE [K2E], which protein stability index is on record?
A: 2.81

Q: For RLADFKAGKALVISGREVFEFRPE [K2L], which protein stability index is on record?
A: 1.76

Q: Which protein stability index does the source give for RIADFKAGKALVISGREVFEFRPE [K2I] here?
A: 1.92

Q: Which protein stability index does the source give for RAADFKAGKALVISGREVFEFRPE [K2A] here?
A: 3.43

Q: With RDADFKAGKALVISGREVFEFRPE [K2D] as the variant, how does the protein stability index read?
A: 3.43

Q: Which protein stability index does the source give for RKVDFKAGKALVISGREVFEFRPE [A3V] here?
A: 2.61

Q: For RKTDFKAGKALVISGREVFEFRPE [A3T], which protein stability index is on record?
A: 3.24

Q: With RKEDFKAGKALVISGREVFEFRPE [A3E] as the variant, how does the protein stability index read?
A: 3.77

Q: For RKGDFKAGKALVISGREVFEFRPE [A3G], which protein stability index is on record?
A: 3.13

Q: Which protein stability index does the source give for RKHDFKAGKALVISGREVFEFRPE [A3H] here?
A: 2.44

Q: Which protein stability index does the source give for RKRDFKAGKALVISGREVFEFRPE [A3R] here?
A: 2.85

Q: With RKQDFKAGKALVISGREVFEFRPE [A3Q] as the variant, how does the protein stability index read?
A: 3.06

Q: Which protein stability index does the source give for RKIDFKAGKALVISGREVFEFRPE [A3I] here?
A: 2.71

Q: For RKWDFKAGKALVISGREVFEFRPE [A3W], which protein stability index is on record?
A: 2.51

Q: For RKMDFKAGKALVISGREVFEFRPE [A3M], which protein stability index is on record?
A: 2.75

Q: With RKLDFKAGKALVISGREVFEFRPE [A3L] as the variant, how does the protein stability index read?
A: 2.57

Q: With RKDDFKAGKALVISGREVFEFRPE [A3D] as the variant, how does the protein stability index read?
A: 3.7

Q: For RKFDFKAGKALVISGREVFEFRPE [A3F], which protein stability index is on record?
A: 2.23

Q: With RKKDFKAGKALVISGREVFEFRPE [A3K] as the variant, how does the protein stability index read?
A: 3.12

Q: With RKPDFKAGKALVISGREVFEFRPE [A3P] as the variant, how does the protein stability index read?
A: 2.95

Q: Which protein stability index does the source give for RKSDFKAGKALVISGREVFEFRPE [A3S] here?
A: 2.68

Q: For RKNDFKAGKALVISGREVFEFRPE [A3N], which protein stability index is on record?
A: 3.11

Q: With RKCDFKAGKALVISGREVFEFRPE [A3C] as the variant, how does the protein stability index read?
A: 2.09

Q: Which protein stability index does the source give for RKYDFKAGKALVISGREVFEFRPE [A3Y] here?
A: 2.52
